Results: the nanobody polyreactivity screen of Harvey et al. (2022)

Assay: yeast display, Sf9 membrane polyspecificity reagent, FACS + sequencing; frameworks hold sequencing errors
Outline: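 A nanobody's polyreactivity label depends on the gate it was sorted from. Yeast display cells were stained with 10% biotinylated, detergent-solubilized Sf9 membrane reagent for 1 hour at 4 °C, enriched on streptavidin microbeads and sorted by FACS. The low and high (top ~1%) gates were set on anti-HA fluorescence for expression and streptavidin fluorescence for reagent binding.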

Row | Sequence | polyreactivity (PSR sort gate)
1 | QVQLVESGVGLVQAGGSLRLSCAASGSIFPHYAMGWYRQAPGKERELVAAISSGTSTNYADSVKGRFTISRDNAKNTVYLQMNSLKPEDTAVYFCAADYYSGYDSVDGDYNYWGQGTQVTVSS | low polyreactivity
2 | QVQLVESGGGLVQAGGSLRLSCAASGFIFSNYAMGWYRQAPGKERELVAAISWSGGNTYYADSVKGRFTISRDNAKNTFYLQMNSLKPEDTAVYYCNRVKAYYRWFLPRYQYNYWGQGTQVTVSS | high polyreactivity
3 | QVQLVESGGGLVQAGGSLRLSCAASGRIFSFNAMGWYRQAPGKERELVASGGSTYADSVKGRFTISRDNAKNTVYLQMNSLKPEDTAVYYCAADPFYYFPSPFDYWGQGTQVTVSS | low polyreactivity
4 | QVQLVESGGGLVQAGGSLRLSCAASGRIFYWNAMGWYRQAPGKEREFVAAISWSGGSTYADSVKGRFTISRDNAKNTVYLQMNSLKPEDTAVYYCATRVYRSFRAYDYWGQGTQVTVSS | high polyreactivity
5 | QVQLVESGGGLVQAGGSLSLSCAASGGTFTFYAMGWYRQAPGKERELVATINWSGGSTYYADSVKGRFTISRDNAKNTVYIQMNCLKPEDSAVYYCNAAWAYKSVEYWGQGTQVTVSS | low polyreactivity
6 | QVQLVESGGGLVQAGRSLRLSCAASGSIISVYAMGLYRQAPGKERELVADITGTGDTYYADSVKGRFTISRDNAKNTVYLQMNSLIPEDTAVYYCNTVYELYYDPSVTEDYWGQGTQVTVSS | low polyreactivity
7 | QVQLVESGGGLVQAGGSLRLSCAASGFTLPVYAMGWYRQAPGKERELVARITWSAGRTYYADSVKGRFTISRDNAKNTGYLQMNSLKPEDTAVYYCAAGPVSQHHSPRPHDYWGQGTQVTVSS | high polyreactivity
8 | QVQLVESGGALVQAGGSLRLSCAASGSIFLFNTMGWYRQAPGKETELVAVISGGGITYYADSVKGRFTISRDNAKNTVYLQMNSLKPEDTAVYYCAADGGYWSQYDYWGQGTQVTVSS | low polyreactivity
9 | QVQLVESGGGLFQAGGSLRLSCAASGSIFWPNTMGWYRQAPGKERELVATISSGGDTSYADSVKGRFTISRDNEKNTVYLQMNSLKPEDTAVYYLAKSITVDDVHPRALTYNYWGQGTQVTVSS | low polyreactivity
10 | QVQLVESAAGLVQAVGSLRLSCAPSGITFYDYTMGWYRQAPGKERELVAAITSSGVSTYYADSVKGRFTISRDNAKNTVYLQMNSLKPEDTAVYYCATDAWSVYSYLAFTYDYWGQGTQVTVSS | low polyreactivity
11 | QVQLVESGGGLVQAGGSLRLSCAASGNTFGRYAMGWYRQAPGKERELVASIRGSSVRTFYADSVKGRFTISRDNAKNTVYLQMNSLKPEDTAVYYCAAEVYRYYATGYGYWGQGTQVTVSS | high polyreactivity
12 | QVQLVESGGGLVQAGGSLRLSCAASGRIFYGNVMGWYRQAPGKERELVAVITSGGNTNYADSVKGRFTISRDNAKNTVYLQMNSLKPEDTAVYYCATAVVAGVWGYDYWGQGTQVTVSS | low polyreactivity
13 | QVQLVESGGGLVQEGGSLRLSCAASGRTSGFNTMGWYRQAPRKERELVAAISFSGGSTYYADSVKGRFTISRDNAKNTVYLQMNSLNPEDTAVYYCNALYRYLYRSGDYWGHGTQVTVSS | low polyreactivity
14 | QVQLVESGGGLVQAGGSLRLSCAASGSTFNIYAMGWYRQAPGKERELVAAITWSTGRTYYADSVKGRFTISRDTAKNTVYLQMNSLKPEDTAVYYCAARSKIRAFGYWGLGTQVTVSS | high polyreactivity
15 | QVQLEESGGGLVQEGGSLRLSSAASGFTFGKYAMGSYRQAPGKEMEFVASISSSGARTYYADSVKGRFTISRDNAKNTVYLQKNSLKPEDTAVYYCAAAYGRYYYTYDYWGQGTQVTVSS | high polyreactivity
16 | QVQLVESGGGLVQAGGSLRLSCAASGITFFGYAMGWYRQAPGKERELVAAISTRGGSTYYADSVKGRFTISRDNAKNTVYLQMNSLKPEDTAFYYCNKEYYHKWAPTYDYWGQGTQVTVSS | low polyreactivity
17 | QVQLVESGGGLVQAGGSLRLSCAASGFTFNRYAMGWYRQAPGKERELVAAITRRGGSTYYADSVKGRFTISRDNAKNTVYLQMNSLKPEYSAVYYCNVDFQAYGIPMDYWGQGTQVTVSS | high polyreactivity
18 | QVQLVESGGGLVQAGGSLRLICAASGFTFRNNAMGWYRQAPGKERELVARITFRGGSTYYADSVKGSFTISRDNAKNTVYLQMNSLNPEHTAVYYCAVDWLSVTSTIKFVMDYWGQGTQVTVSS | low polyreactivity
19 | QVQLVESGGGLVQAGGSLRLSCAASGSTFYYYAMGWYRQAPGKERELVAAISTSDGSTYYADSVKGRFTISRDNAKNTVYLQMNSLKPEDTAVYYCAAESYERFPSYYYWGQGTQVTVSS | low polyreactivity
20 | QVQLVESGGGLVQAGGSLRLSCAASGRIFYSNAMGWYRQAPGKERELVAAIRWSGGRTYYADSVNGRFTISRDNAKNSVYLQMNSLKPEDTAGYYCNARGYSGVSGKYGYWGQGTQVTVSS | high polyreactivity
21 | QVQLVESGGGLVQAGGSLRLSCAASGRTFLYYAMGWDRPAPGKERELVAAITRGGGSTYYADSVKGRFTISRDNAKNTVYLPMNSLKPEDTAVYYCAVEYRVDYYVEYDYWGQGTQVTVSS | high polyreactivity

Row | Sequence | polyreactivity (PSR sort gate)
22 | QVQLVESGGGLVQAGGSLRLSCAASGSTFYYYAMGWYRQAPGKERELVAAISWRCSSTYYADSVKGRFTISRDNAKNTVYLQMNSLKPEDTAVYYCAAGYPGRVSGYLFGTRATYYYWGQGTQVTVSS | high polyreactivity
23 | QGQLVESGGGLVQAGGSIRLSCAAYGSTFNVNAMGLYRQAPGKERELVAAISRSCVSTYYADSVKWRFTISRDNAKNTVYLQMNSLKPEDTAVYYCNAYPGNWRGYRMDYWGQGNQVTVSS | high polyreactivity
24 | QVQLVDSRGGLVQAGGSLRLSCAASGNTFGFNAMGWNRQARGKERHLVAAITWSVGRTYYADSVKRRFTISRDHAKNTVYLEMNSLKPEDTAVYYCAKDFEAGDDYFAYDYWGQGTQVTVSS | low polyreactivity
25 | QVQLVESGAVLVQAGGSLRLSCAASGGTFSGYTMGWYRQAPGKERELVAAITRSGSSTYYADSVKGRFTISRDNAKHTVYLQMNSLKPEDTAVSYCAATYPTSSSSYYNRYYWGQGTQVTVSS | high polyreactivity
26 | QVQLVESGGGLVQAGGSLRLSCAASGITFLNYAMGWYRQAPGKERELVAAIDTRGGRTNYADSVKGRFTISRDNAKNTVYLQMNSLKPEDTAVYYCNALGYYVHKMDYWGQGTQVTVSS | low polyreactivity
27 | QVQLVESGGGLVQAGGSLRLSCAASGSTFYRYAMGWYRQAPGKERELVATITNSGGSTYYADSVKGRFTISRDNAKYTVYLQMNSLKPEDTAVYYCARVRSRNTGYYYWGQGTQVTVSS | high polyreactivity
28 | QVQLVESGGGLVQAGGSLRLSCAASGIIFCDNAMGWYRHAPGKERELVAAITIGGTSTYYADSVKGRFTISRDNAKNTVYLQMNSLKPEDTAVYYCAKTILYDCDYWGQGTQVTVSS | low polyreactivity
29 | QVQLVESGGGLVQAGGSLRLSCAASGFTFSSYAMGWYRQAPGKERELVAAITWGGGRTYYADSVKGRFTISRDNAKNTVYLQINSLKPEDTAVYYCNVPQWVSIWRKNNYWGLGTQVTVSS | high polyreactivity
30 | QDQLVESGGGLVQAGGSLRLSCAASGLIFYEYAMGWYRQAPGKERELVAAISRGGRTYYADSVKGRFTISRDNAKNTVYLQMNSLKPEDTAVYYCADRHWPEKYDYWGQGTHVTVSS | high polyreactivity
31 | QVQLVESGGGLVQAGGSLRLSCAASGRIFADYAMGWYRQAPGKEREMVADIRQSGGRTYYADSVKGRFTISRDNAKNTVYLQMNSLKPEDTAVYYCATEYGSLGDYSGKYDYWGQGTQVTVSS | low polyreactivity
32 | QVQLVESGGGLVQAGGSLRLICAASGSIFKIYAMGWYRQAPGKERELVARITRRGGRTNYADSVKGRFTISRDNAKNTVYLQINSLKPEDTAVYYCAATVYPSVYGENHYGYWGQGTQVTVSS | high polyreactivity
33 | QVQLVESGGGLVQAGGSLRLSCAASGSTFDVNAMGWYRPAPGKERELVAAISWNSGSTYYADSVKGRFTISRDNAKNTVYLQLNSLKPEDTAVYYCAATYGTGRRSKYGYWGQGTQVTVSS | high polyreactivity
34 | QVQLVESGGGLVQAGGSLRLSCAASGRTFARNAMGWSRQAPGKERELVAAITRSGGSTYYADSVKGRFTISRDNAKNTVYLQMNSLKPEDTAVYYCAAVGTGSSLRYGYWGQGTQVTVSS | high polyreactivity
35 | QVQLVESGVGLVQAGGSLRLSCASSGSTCGYYTMGWYRQAPGKERELVAAITKTGGGTYYADSVKGRFTISRDNAKNTDYLQMNSLKPEDTAVYYCAAYSRFTSDYWGQGTQVTVSS | high polyreactivity
36 | QVQLVESGGGLVQAGGSLRLSCAASGNTFYSYAMGWYRQAPGKERELVAAITWGGRTKYADSVKGRFTISRDNAKNTVYLQMNSLKPEDTAVDYCAARLYHGKTKYDYWGQGTQVTVSS | high polyreactivity
37 | QVQLVESGGGLVQAGGSLRLSCAASGRIFGPYAMGWYRQAPGKERELVAAISQRGGTTYYADSVKGRFTISRDNAKNTVYLQMNSLKPEDTAVYYCAAKTYGWGQGTQVTVSS | high polyreactivity
38 | QVQLVESGGGLVQAGGSLRLSCAASGLTFSLYAMGWYGQAPGKEREFVAAISSSGGSTYYADSVKGRFTISRDNAKNTVYLQMNSLKPEDTAVYYCNVRRKSRMGYWGQGTQVTVSS | high polyreactivity
39 | QFQLVESGGGLLQAGGSLRLSCAASGLTFNQKAMGWYTQAPGKDRELVAAISRRGGSTYYADSVKGRFTFSRENAKNTVYLQLNSLKPEDTAVYYCNTRGKSGLWWYYYWGQGTQVTVSS | high polyreactivity
40 | QVQLVESGGGFVQAGGSLRLSCAASGSIFDPYAMGWYIQAPGKERELVAAINWSGDSTYYADSVKGRFTISRDNAKNTVYLQMYSLKPEDTAVYYCAADPTDDTHLYYYWRQGTQVTVSS | low polyreactivity
41 | QVQLVESGGGLVQAGGSLRLSCAASGFIFDWNTMGWYRQAPGQERELVAAITESSGSTYYADSVKGRFTISRDNAKNTVYLQMNSLKPEDTAVYYCAAESLISWRYDYWGQGTQVTVSS | low polyreactivity
